The results in this text go back to the supplement of paper PMC10567573.

± gives the standard deviation.

The data set can be described thus: protein stability index of a GFP-peptide fusion (GPS, HEK-293T) (PSI 1-6); higher = more stable. The following applies: c terminus: a fixed tail appended.
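Further: 24-mer peptide tiles fused after GFP, lentivirally expressed, FACS-sorted into six equal bins by GFP/DsRed ratio, decoded by Illumina sequencing, PSI is the read-weighted mean bin number.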

For DFHQGLLSFYNARTKQVLHTFKTR [FSD1], the protein stability index is 2.2 ± 0.16 (treatment: DMSO) and 2.28 ± 0.31 (treatment: MLN4924 1 uM, 8 h).

Take DGMRNKETLEGREKAFIAHFQDNL [MED27]: the protein stability index is, setting by setting: (treatment: DMSO) 4.35 ± 0.17; (treatment: MLN4924 1 uM, 8 h) 4.2 ± 0.17.

In the case of DGNSLLSSIECYDPIIDSWEVVTS [KLHL12], the protein stability index is 3.29 ± 0.33 (treatment: DMSO) and 3.47 ± 0.47 (treatment: MLN4924 1 uM, 8 h).

On to DGSKSLGEENFEVVKQFVTGIIDS [MATN2], for which the protein stability index runs as follows: (treatment: DMSO) 4.38 ± 0.13; (treatment: MLN4924 1 uM, 8 h) 4.33 ± 0.27.

Turning to DGVPHLILIASRDIAAGEELLYDY [KMT5A], the protein stability index runs as follows: (treatment: DMSO) 1.98 ± 0.31; (treatment: MLN4924 1 uM, 8 h) 2.13 ± 0.099.

As for DHDPTIEDAYKIRIRIDDEPANLD [RIT1], the protein stability index runs as follows: (treatment: DMSO) 4.86 ± 0.19; (treatment: MLN4924 1 uM, 8 h) 4.84 ± 0.21.

As for DIKQLIAKKIKLTAEAEELKPFFM [SOAT1], the protein stability index amounted to 2.59 ± 0.59 (treatment: DMSO) and 2.15 ± 0.1 (treatment: MLN4924 1 uM, 8 h).

For DIQIVERKKSADVLALADEAGYYF [ADAMTSL2], the protein stability index is 3.08 ± 0.23 (treatment: DMSO) and 3.39 ± 0.2 (treatment: MLN4924 1 uM, 8 h).

DKDCSLDCAGSPQKPLCASDGRTF [SMOC2]: the protein stability index came out at 4.68 ± 0.39 (treatment: DMSO) and 4.76 ± 0.34 (treatment: MLN4924 1 uM, 8 h).

In the case of DKLEYLDEKQRDPRIEASKVLLCH [NET1], the protein stability index reads like this: (treatment: DMSO) 4.09 ± 0.22; (treatment: MLN4924 1 uM, 8 h) 4.08 ± 0.19.

Turning to DKMEAYNIDETCGRHHSQSTEVQA [TEKT4], the protein stability index came out at 4.91 ± 0.19 (treatment: DMSO) and 4.9 ± 0.17 (treatment: MLN4924 1 uM, 8 h).

As for DKWFRKIKDHFCPFENQFHTEIQI [C8orf76], the protein stability index runs as follows: (treatment: DMSO) 2.2 ± 0.54; (treatment: MLN4924 1 uM, 8 h) 2.32 ± 0.42.

For DLETHRLPCTSRCPRPCRESAFKL [SCNN1D], the protein stability index runs as follows: (treatment: DMSO) 2.41 ± 0.21; (treatment: MLN4924 1 uM, 8 h) 2.44 ± 0.063.

For the sequence DLLNVCMRHVEKMCKADLSRNFIE [TRIM29], the protein stability index is, setting by setting: (treatment: DMSO) 3.09 ± 0.21; (treatment: MLN4924 1 uM, 8 h) 2.87 ± 0.28.

As for DLLPTFRHTLQKLTCEFNNNHESL [FBXO39], the protein stability index is, setting by setting: (treatment: DMSO) 2.27 ± 0.22; (treatment: MLN4924 1 uM, 8 h) 2.35 ± 0.48.

In the case of DLQVNRNFSLATNTKYSVYIYVYF [R3HDM1], the protein stability index was 2.59 ± 0.59 (treatment: DMSO) and 2.88 ± 0.078 (treatment: MLN4924 1 uM, 8 h).

For DLRGVCVSGKCEPIGCDGVLFSTH [ADAMTSL2], the protein stability index was 2.4 ± 0.091 (treatment: DMSO) and 2.75 ± 0.59 (treatment: MLN4924 1 uM, 8 h).

As for DLSHIEGLSQAPQPLADEGPPGRS [SERTAD1], the protein stability index is, setting by setting: (treatment: DMSO) 5.11 ± 0.31; (treatment: MLN4924 1 uM, 8 h) 5.14 ± 0.36.

Regarding DLVRLLQNVARIPEFELLWKDIIH [INTS3], the protein stability index is, setting by setting: (treatment: DMSO) 2.61 ± 0.65; (treatment: MLN4924 1 uM, 8 h) 2.15 ± 0.19.

Consider DMKLIILANRLCLPHLVALTEQYT [RHOBTB2], for which the protein stability index runs as follows: (treatment: DMSO) 3.8 ± 0.26; (treatment: MLN4924 1 uM, 8 h) 3.08 ± 1.3.

In the case of DNAIMLFSPDFTLRNTLKSTSEDS [FAN1], the protein stability index is 4.22 ± 0.34 (treatment: DMSO) and 4.2 ± 0.5 (treatment: MLN4924 1 uM, 8 h).

For the sequence DPEPSGPHLPRVMLPGVLAGVSAE [SCNN1D], the protein stability index was found to be 4.59 ± 0.43 (treatment: DMSO) and 4.33 ± 0.21 (treatment: MLN4924 1 uM, 8 h).

For DPFTVPTISFICRELDAISTNEEE [PRIM1], the protein stability index is, setting by setting: (treatment: DMSO) 4.85 ± 0.31; (treatment: MLN4924 1 uM, 8 h) 4.78 ± 0.3.

Consider DPKEDVFQQNHLFWLQNSSPSSDR [PHTF1], for which the protein stability index reads like this: (treatment: DMSO) 4.71 ± 0.18; (treatment: MLN4924 1 uM, 8 h) 4.49 ± 0.19.

As for DPQLEIAYRGNCKDVSRCVAERKY [SMOC2], the protein stability index was found to be 4.04 ± 0.32 (treatment: DMSO) and 4.12 ± 0.11 (treatment: MLN4924 1 uM, 8 h).

Consider DSFDKFEFCEPAFVVGNCLQIASD [PCMTD1], for which the protein stability index stood at 3.31 ± 0.072 (treatment: DMSO) and 3.24 ± 0.22 (treatment: MLN4924 1 uM, 8 h).

DSGDVSNVIEKVKCILKTPGKINC [RHOBTB3] returned a protein stability index (treatment: DMSO) of 2.92 ± 0.21 and a protein stability index (treatment: MLN4924 1 uM, 8 h) of 2.87 ± 0.5.

DSKDCILEPLSLPESPGGTTTLEG [ZNF277]: the protein stability index is 5.36 ± 0.19 (treatment: DMSO) and 5.32 ± 0.25 (treatment: MLN4924 1 uM, 8 h).

DTILKYLKDHFSHLLGIPHSVLQI [IQUB]: the protein stability index worked out at 2.61 ± 0.43 (treatment: DMSO) and 2.63 ± 0.67 (treatment: MLN4924 1 uM, 8 h).
